Positions count from the first letter of the chain named.

By Kd is commonly meant the free concentration of one partner at which half of the binding sites on the other are occupied at equilibrium, for simple one-to-one binding. A word on the koff: it is the first-order rate constant of dissociation. The term kon denotes the rate constant with which the complex forms.

The target in experiment [1] is T1, rhesus IL22R ECD (rhesus) (UniProt G7MHN4).
T1 sequence (chain, biotinylated): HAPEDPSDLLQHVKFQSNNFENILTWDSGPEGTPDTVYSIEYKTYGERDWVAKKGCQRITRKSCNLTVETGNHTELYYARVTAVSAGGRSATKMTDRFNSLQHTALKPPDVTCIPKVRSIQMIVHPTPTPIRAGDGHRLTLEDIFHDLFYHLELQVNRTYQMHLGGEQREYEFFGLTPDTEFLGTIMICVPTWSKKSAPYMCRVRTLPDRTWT
Kind of experiment: ELISA, mAb coated at 100 ng/ml, biotinylated rhesus IL22R ECD at 2 ng/ml, streptavidin-HRP.

Experiment [2] has as its target T1, rhesus IL22R ECD (rhesus). The experiment is described as follows: ELISA, mAb coated at 100 ng/ml, biotinylated rhesus IL22R ECD at 100 ng/ml, streptavidin-HRP. (An ELISA detects its analyte on a solid surface through an enzyme-linked reagent.)
Experiment [3] addresses cyno IL22R ECD (cyno). The experiment is described as follows: ELISA, mAb coated at 100 ng/ml, biotinylated cyno IL22R ECD at 100 ng/ml, streptavidin-HRP.
Experiment [4] addresses T2, recombinant human IL22R1 (human IL22R ECD) (human) (UniProt Q8N6P7).
T2 sequence (biotinylated in the ELISA of Table 4, looked up): T1 sequence (chain, biotinylated) with N18S, H73L, N99S, A105T, P115S, E167K, S194A, K196E, R205K
The experiment is described as follows: ELISA, mAb coated at 100 ng/ml, biotinylated human IL22R ECD at 100 ng/ml, streptavidin-HRP.

Experiment [5] deals with T3, recombinant mouse IL22R1 (mouse IL22R ECD) (mouse) (UniProt Q80XZ4).
T3 sequence (biotinylated in the ELISA of Table 4, looked up): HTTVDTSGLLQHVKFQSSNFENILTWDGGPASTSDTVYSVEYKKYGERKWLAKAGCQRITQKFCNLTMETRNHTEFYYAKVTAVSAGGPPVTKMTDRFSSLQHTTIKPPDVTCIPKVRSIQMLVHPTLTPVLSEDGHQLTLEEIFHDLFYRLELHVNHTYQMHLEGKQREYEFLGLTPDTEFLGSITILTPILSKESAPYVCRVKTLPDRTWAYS
The experiment is described as follows: ELISA, mAb coated at 100 ng/ml, biotinylated mouse IL22R ECD at 2 ng/ml, streptavidin-HRP.

Experiment [6] deals with T2, recombinant human IL22R1 (human IL22R ECD) (human). The experiment is described as follows: Biacore, immobilized human IL22R ECD. On the technique in general: SPR reads the build-up and loss of mass on a sensor chip optically.
The target is the same in experiment [7]. Kind of experiment: ELISA, mAb coated at 100 ng/ml, biotinylated human IL22R ECD at 2 ng/ml, streptavidin-HRP.
Experiment [8] deals with T3, recombinant mouse IL22R1 (mouse IL22R ECD) (mouse). Kind of experiment: ELISA, mAb coated at 100 ng/ml, biotinylated mouse IL22R ECD at 100 ng/ml, streptavidin-HRP.
The target is the same in experiment [9]. The experiment is described as follows: Biacore, immobilized mouse IL22R ECD.
The target of experiment [10] is cyno IL22R ECD (cyno). Kind of experiment: ELISA, mAb coated at 100 ng/ml, biotinylated cyno IL22R ECD at 2 ng/ml, streptavidin-HRP.

B1: 205A9 (antibody, part only; not given: parental heavy chain variable domain, V domains shown, part only)
VL: HSAVTQPSAVSVSLGQTARITCQGGNFGSYYASWYQQKPGQAPVLVIYDDDRRPSGIPERFSGSSSGGRSTLTISGAQSGDEGDYYCQSADLSGNPVFGGGTHLTVL
As for B1, the Absorption at 620 nm (relative absorption units) in experiment [1] was determined as 1.97; in [2], 2.59; in experiment [3] it was 2.18; in [4] it was 2.57; in experiment [5], 1.86; in [7] it was 1.03. In [8], the Absorption at 620 nm (relative absorption units) amounted to 2.36. Further, the dissociation constant (Kd) in [6] stood at 0.42 nM; in experiment [9], 1.8 nM. Also, the figures for the dissociation rate constant (koff) in experiment [6] and in experiment [9] were 0.00028 s⁻¹ and 0.00048 s⁻¹, respectively. For the same molecule, the kon in experiment [6] came out at 670000 M⁻¹ s⁻¹; in experiment [9] it was 260000 M⁻¹ s⁻¹.

B2: 205A5 (antibody, part only; not given: parental light chain variable domain, V domains shown, part only)
VH: QVQLVESGGGLVQPGGSLRLSCAASGFTFNSYEMYWVRQAPGKGLEWVSGITADGGYTYYADSVKGRFTMSRDNAKNTLYLQMNSLKPEDTALYYCANLWNDYWGQGTQVIVSS
Consider B2, for which the Absorption at 620 nm (relative absorption units) in experiment [1] stood at 1.17; in experiment [2], 2.77; in experiment [3], 2.66; in [4], 2.93; in experiment [5], 0.172; in experiment [7], 1. For the same molecule, the values for the Absorption at 620 nm (relative absorption units) in experiment [8] and in experiment [10] were 2.36 and 1.36, respectively. Further, the equilibrium dissociation constant (Kd) turned out to be 0.0019 nM in [6] and 0.007 nM in [9]. In addition, the koff was determined as 3.1e-07 s⁻¹ in experiment [6] and 1e-06 s⁻¹ in [9]. The figures for the kon in experiment [6] and in experiment [9] were 160000 M⁻¹ s⁻¹ and 150000 M⁻¹ s⁻¹, respectively.
